The target of the test is T1, wild type bacteriophage T7 (bacteriophage T7, UniProt P19726 1-345; P19727 1-398).
T1 construct: Whole phage particle without a homing peptide, used as the control; also called WT T7; wild type T7
T1 sequence 1: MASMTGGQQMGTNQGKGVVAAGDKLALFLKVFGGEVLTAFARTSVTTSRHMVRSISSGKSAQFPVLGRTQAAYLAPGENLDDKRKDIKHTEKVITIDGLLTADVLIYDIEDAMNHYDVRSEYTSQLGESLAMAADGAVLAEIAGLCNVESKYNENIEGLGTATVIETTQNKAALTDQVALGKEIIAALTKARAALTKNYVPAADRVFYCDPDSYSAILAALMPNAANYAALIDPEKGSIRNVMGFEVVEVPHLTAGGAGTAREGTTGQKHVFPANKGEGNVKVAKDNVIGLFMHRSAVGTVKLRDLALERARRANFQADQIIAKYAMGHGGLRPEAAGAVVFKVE
T1 sequence 2: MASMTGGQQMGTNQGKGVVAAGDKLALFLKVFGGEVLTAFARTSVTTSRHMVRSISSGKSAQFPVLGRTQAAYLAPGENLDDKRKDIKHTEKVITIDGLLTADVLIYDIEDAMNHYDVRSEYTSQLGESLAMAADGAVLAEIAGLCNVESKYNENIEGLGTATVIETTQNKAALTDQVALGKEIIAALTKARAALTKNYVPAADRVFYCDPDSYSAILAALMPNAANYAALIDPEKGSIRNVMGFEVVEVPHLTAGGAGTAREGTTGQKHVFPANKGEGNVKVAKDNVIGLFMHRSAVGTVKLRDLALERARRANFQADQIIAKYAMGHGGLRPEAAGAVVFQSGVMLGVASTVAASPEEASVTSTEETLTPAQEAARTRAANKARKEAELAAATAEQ
As to the kind of experiment: confocal fluorescence microscopy of B16F10 cells, anti-T7 antibody staining after washing.

This note sets out measurements from patent US20210009963A1 (LYSENTECH, published 2021).

B1: grp78 on B16F10 mouse melanoma cells (receptor)
chain: not shown
notes: whole, on cells; The assay was done on whole B16F10 cells; also called receptor for pep42; B16F10 cells
For the molecule B1, the binding result is “no binding (tested: 1×10^7 PFU of phages)”.
